Series [1] can be described thus: Activity to degrade phosphoric acid swollen cellulose. In kind it is biochemical. The protocol: The term “identity” refers to the percentage of amino acid residues identical to and amino acid residues analogous to the other amino acid residues in all the amino acid residues overlapped when an optimum alignment is performed by introducing gaps or no gaps into two amino acid sequences and then aligning the two amino acid sequences. Such an identity can be found using a method known by persons skilled in the art, sequence analysis software, and the like (a known algorithm such as BLAST or FASTA). The term “endoglucanase activity” is as defined above and can be determined by adding an enzyme solution to a substrate solution of phosphoric acid swollen cellulose that has been dissolved in 50 mM acetic acid-sodium acetate buffer (pH 5.2) or the like, performing 1 hour of reaction at 30° C. to 85° C., stopping the reaction by changing the pH if necessary, and then determining the concentration of glucose in the reaction solution using a glucose determination kit, for example.
The mutants obtained in Comparative Example 1 were compared in terms of activity by a technique similar to that in Example 3. The concentration (g/L) of glucose generated by each parent endoglucanase under the above reaction conditions was determined to be 100%.

Series [2] can be described thus: Saccharification of lignocellulose 3 with Celluclast and endoglucanase. In kind it is biochemical, Rice straw. The conditions noted are these: 5 wt % Lignocellulose 3, pH 5.2, 50° C., 24 hours; 1.0 mg/mL cellulase + 0.1 mg/mL endoglucanase. The protocol:
(§1) Rice straw was used as cellulose. The cellulose was immersed in water, and then autoclaved with agitation at 180° C. for 20 minutes (Nitto Koatsu Co. Ltd.). Pressure at this time was 10 MPa. After treatment, a solution component (hereinafter, referred to as “hydrothermally treated solution”) and the treated biomass component were subjected to solid-liquid separation by centrifugation (3000 G). The thus treated biomass component was used as lignocellulose 3 for the following examples.
(§2) The changes in the amount of glucose generated when the enzyme composition had been caused to act on lignocellulose substrates were compared. The substrates were prepared by suspending 5 wt % lignocelluloses (1 to 3) (prepared in Reference Example 3) in 50 mM acetate buffer (pH5.2). Reactions were performed at 50° C. for 24 hours. The concentrations of the generated glucose were measured after adequate sampling. As a filamentous bacterium-derived cellulase mixture, commercially available Trichoderma reesei-derived cellulase (Celluclast, Sigma) was used. As endoglucanases, the mutant endoglucanases prepared in Example 2 and the wild-type endoglucanases prepared in Reference Example 1 were separately used. The following quantities of enzymes were added: 1.0 mg/mL cellulase, and 0.1 mg/mL endoglucanase (in an amount one tenth that of the cellulase).

A short description of series [3]: Saccharification of lignocellulose 2 with Celluclast and endoglucanase. Format: biochemical, Rice straw. The following applies: 5 wt % Lignocellulose 2, pH 5.2, 50° C., 24 hours; 1.0 mg/mL cellulase + 0.1 mg/mL endoglucanase. As for the experimental part:
(§3) Rice straw was used as cellulose. Cellulose was immersed in a 1% aqueous sulfuric acid solution, and then autoclaved for 30 minutes at 150° C. (Nitto Koatsu Co. Ltd.). After treatment, the resultant was subjected to solid-liquid separation into an aqueous sulfuric acid solution (hereinafter, referred to as “dilute-sulfuric-acid-treated solution”) and cellulose treated with sulfuric acid. Next, the cellulose treated with sulfuric acid was mixed and agitated with the dilute-sulfuric-acid-treated solution so that the solid content concentration was 10 wt %. Then the mixture was adjusted to around pH 5 using sodium hydroxide. The resultant was used as lignocellulose 2 for the following examples.
as §2

Series [4] can be described thus: Saccharification of lignocellulose 1 with Trichoderma reesei culture solution and endoglucanase. Format: biochemical, Rice straw. The following applies: Lignocellulose 1, 24 hours; cellulase 1.0 mg/mL + endoglucanase 0.1 mg/mL + β-glucosidase (Novozyme 188) 0.01 mg/mL. The protocol: (§4) Rice straw was used as cellulose. The cellulose was added to a small reactor (Taiatsu Techno Corporation, TVS-N2 (30 ml)), and then cooled with liquid nitrogen. An ammonia gas was fed to the reactor, thereby completely immersing the sample in the liquid ammonia. The reactor was closed using its lid, and then left to stand at room temperature for 15 minutes. Subsequently, treatment was performed for 1 hour in an oil bath at 150° C. After treatment, the reactor was removed from the oil bath, an ammonia gas leak was immediately performed within a draft chamber. The reactor was vacuumed using a vacuum pump to 10 Pa for drying. The resultant was used as lignocellulose 1 in the following examples.
as §2
(§5) Lignocelluloses (1-3) prepared in Reference Example 3 were used as substrates. The Trichoderma reesei culture solution prepared in Reference Example 4 was used as a filamentous bacterium-derived cellulase mixture. Lignocelluloses (1-3) were hydrolyzed in a manner similar to that in Example 7, except for the quantities of the enzymes added: cellulase (1.0 mg/mL); endoglucanase (0.1 mg/mL (in an amount one tenth that of the cellulase); and β-glucosidase (Novozyme 188) (0.01 mg/mL (in an amount one hundredth that of the cellulase).

A short description of series [5]: Saccharification of lignocellulose 2 with Trichoderma reesei culture solution and endoglucanase. In kind it is biochemical, Rice straw. The following applies: Lignocellulose 2, 24 hours; cellulase 1.0 mg/mL + endoglucanase 0.1 mg/mL + β-glucosidase (Novozyme 188) 0.01 mg/mL. As for the experimental part:
as §3, §2, §5

Series [6] can be described thus: Saccharification of lignocellulose 1 with Celluclast and endoglucanase. In kind it is biochemical, Rice straw. The conditions noted are these: 5 wt % Lignocellulose 1, pH 5.2, 50° C., 24 hours; 1.0 mg/mL cellulase + 0.1 mg/mL endoglucanase. The protocol: as §4, §2
A short description of series [7]: Inhibition experiment with ferulic acid: degradation of phosphoric acid swollen cellulose. In kind it is biochemical. The following applies: enzyme 0.5 μM, 1 hour, 50° C., parent at 0 mM = 100%.
Protocol: (§6) This substance was diluted using buffer and water to obtain a 2 wt % mixture so that the final concentration of sodium acetate was 50 mM (pH 5.2). This was designated as phosphoric acid swollen cellulose and used for the following examples.
The activity of the wild-type and the mutant endoglucanases to degrade phosphoric acid swollen cellulose was measured in the presence of ferulic acid. 1% phosphoric acid swollen cellulose/50 mM acetate buffer (pH 5.2) was used as a substrate. Ferulic acid (Sigma Aldrich) was added at final concentrations of 0, 5, 10, and 15 mM. The enzymes prepared in Reference Example 1 and Example 2 were each added at a final concentration of 0.5 μM, followed by 1 hour of enzymatic reaction at 50° C.
Series [8] is described as follows: Saccharification of lignocellulose 3 with Trichoderma reesei culture solution and endoglucanase. In kind it is biochemical, Rice straw. The conditions noted are these: Lignocellulose 3, 24 hours; cellulase 1.0 mg/mL + endoglucanase 0.1 mg/mL + β-glucosidase (Novozyme 188) 0.01 mg/mL. As for the experimental part: as §1, §2, §5
The nature of series [9]: Inhibition experiment with vanillin: degradation of phosphoric acid swollen cellulose. Format: biochemical. The conditions noted are these: enzyme 0.5 μM, 1 hour, 50° C., parent at 0 mM = 100%.
Protocol: as §6
The activity of the wild-type and the mutant endoglucanases to degrade phosphoric acid swollen cellulose in the presence of vanillin was measured. 1% phosphoric acid swollen cellulose/50 mM acetate buffer (pH 5.2) was used as a substrate. Vanillin (Sigma Aldrich) was added at final concentrations of 0, 5, 10, and 15 mM. The enzymes prepared in Reference Example 1 and Example 2 were added at a final concentration of 0.5 μM, followed by 1 hour of enzymatic reaction at 50° C.
[10] abbreviates: Comparative Example 2, technique similar to Example 3, parent endoglucanase = 100%.
The mark [11] stands for this setting: 1% phosphoric acid swollen cellulose, pH 5.2, enzyme 0.5 μM, 1 hour, 50° C., glucose generated by each parent endoglucanase = 100%.

B1: EGPh(W273Y): comparative mutant of EGPh, the 273rd tryptophan substituted with tyrosine, SEQ ID NO: 49 (protein)
chain: MEGNTILKIVLICTILAGLFGQVVPVYAENTTYQTPTGIYYEVRGDTIYMINVTSGEETPIHLFGVNWFGFETPNHVVHGLWKRNWEDMLLQIKSLGFNAIRLPFCTESVKPGTQPIGIDYSKNPDLRGLDSLQIMEKIIKKAGDLGIFVLLDYHRIGCTHIEPLWYTEDFSEEDFINTWIEVAKRFGKYWNVIGADLKNEPHSVTSPPAAYTDGTGATWGMGNPATDWNLAAERIGKAILKVAPHWLIFVEGTQFTNPKTDSSYKWGYNAWYGGNLMAVKDYPVNLPRNKLVYSPHVYGPDVYNQPYFGPAKGFPDNLPDIWYHHFGYVKLELGYSVVIGEFGGKYGHGGDPRDVIWQNKLVDWMIENKFCDFFYWSWNPDSGDTGGILQDDWTTIWEDKYNNLKRLMDSCSKSSSSTQSVIRSTTPTKSNTSKKICGPAILIILAVFSLLLRRAPR
modifications: Pyrococcus horikoshii EGPh W273Y
In the case of B1, in series [1] (setting [10]), the Relative activity stood at 100%.

B2: EGPh(W273F): comparative mutant of EGPh, tryptophan substituted with phenyl alanine, SEQ ID NO: 50 (protein)
chain: MEGNTILKIVLICTILAGLFGQVVPVYAENTTYQTPTGIYYEVRGDTIYMINVTSGEETPIHLFGVNWFGFETPNHVVHGLWKRNWEDMLLQIKSLGFNAIRLPFCTESVKPGTQPIGIDYSKNPDLRGLDSLQIMEKIIKKAGDLGIFVLLDYHRIGCTHIEPLWYTEDFSEEDFINTWIEVAKRFGKYWNVIGADLKNEPHSVTSPPAAYTDGTGATWGMGNPATDWNLAAERIGKAILKVAPHWLIFVEGTQFTNPKTDSSYKWGYNAWFGGNLMAVKDYPVNLPRNKLVYSPHVYGPDVYNQPYFGPAKGFPDNLPDIWYHHFGYVKLELGYSVVIGEFGGKYGHGGDPRDVIWQNKLVDWMIENKFCDFFYWSWNPDSGDTGGILQDDWTTIWEDKYNNLKRLMDSCSKSSSSTQSVIRSTTPTKSNTSKKICGPAILIILAVFSLLLRRAPR
modifications: Pyrococcus horikoshii EGPh W273F
In the case of B2, the Relative activity in [1] (setting [10]) was 100%.

B3: EGSh Wild-type: Staphylothermus hellenicus-derived endoglucanase, SEQ ID NO: 19, parent endoglucanase (protein)
chain: MPARTRIACAVILLLVFLALYIAWPVEGSFLKQQPYNELRGRVLGSNIQIPKDHIPYYHIVNGTIYMDDKLIHLFGVSWFGFELPDHIVYGLWARNWKDILKDIKEMGFNAIRLPFCHESITPGTKPVPGRISYSLNPDLRNLTSLEIMEKIISYANELNIFVLLDYHRIGCRYIEPLWYTDNFSEEQYIKDWVFLAQKFGKYPNVIGADIKNEPHDSASWGTGDNKTDFRLFAERVGQAILQVAPHWLIFIEGVQYTHVPEIDGRNPYSCFWGENLMGVKDYPVRLPKDKIVYSPHVYGPSVYNMPYFNDPEFPRNLPKIWELHFGYLKELGYAIVIGEWGGRYVGKDKVWQDAFADWLIQKGIYDFFYWCLNPESGDTGGIFKSDWRTVNQDKLNLIHRIINAASQAQASTISGKHDWKTYLVLIAPTLLPVLILVILVLLIIKRRYTKKQ
modifications: Staphylothermus hellenicus EGSh
B3: the “Concentration of glucose generated, Celluclast + Wild-type” value was determined as 12 g/L in [2], 11 g/L in series [3] and 12 g/L in [6]. The results for the “Concentration of glucose generated, Culture solution + Wild-type” value in series [4], in series [5] and in series [8] were 9 g/L, 8 g/L and 9 g/L, respectively. Moreover, the Relative activity in series [1] (setting [11]) is on record as 100%. The “Relative activity to degrade phosphoric acid swollen cellulose” value in [7] (ferulic acid 0 mM) stood at 100%; in [7] (ferulic acid 5 mM) it was 65%; in [7] (ferulic acid 10 mM), 55%; in [7] (ferulic acid 15 mM) it was 50%; in series [9] (vanillin 0 mM) it was 100%; in series [9] (vanillin 5 mM), 40%. The “Relative activity to degrade phosphoric acid swollen cellulose” value in [9] (vanillin 10 mM) turned out to be 35%; in series [9] (vanillin 15 mM), 30%.

B4: EGSh Mutant: mutant EGSh, SEQ ID NO: 20; residue corresponding to 273rd tryptophan substituted with alanine (protein)
chain: MPARTRIACAVILLLVFLALYIAWPVEGSFLKQQPYNELRGRVLGSNIQIPKDHIPYYHIVNGTIYMDDKLIHLFGVSWFGFELPDHIVYGLWARNWKDILKDIKEMGFNAIRLPFCHESITPGTKPVPGRISYSLNPDLRNLTSLEIMEKIISYANELNIFVLLDYHRIGCRYIEPLWYTDNFSEEQYIKDWVFLAQKFGKYPNVIGADIKNEPHDSASWGTGDNKTDFRLFAERVGQAILQVAPHWLIFIEGVQYTHVPEIDGRNPYSCFAGENLMGVKDYPVRLPKDKIVYSPHVYGPSVYNMPYFNDPEFPRNLPKIWELHFGYLKELGYAIVIGEWGGRYVGKDKVWQDAFADWLIQKGIYDFFYWCLNPESGDTGGIFKSDWRTVNQDKLNLIHRIINAASQAQASTISGKHDWKTYLVLIAPTLLPVLILVILVLLIIKRRYTKKQ
modifications: Staphylothermus hellenicus EGSh W273A
notes: residue corresponding to 273rd tryptophan substituted with alanine
Turning to B4, the figures for the “Concentration of glucose generated, Celluclast + Mutant” value in [2], in series [3] and in series [6] were 15 g/L, 15 g/L and 14 g/L, respectively. Moreover, the “Concentration of glucose generated, Culture solution + Mutant” value is given as 11 g/L in series [4], 12 g/L in [5] and 12 g/L in series [8]. Moreover, the Relative activity in [1] (setting [11]) is reported as 100%. Further, the “Relative activity to degrade phosphoric acid swollen cellulose” value is 100% in series [7] (ferulic acid 0 mM); 95% in series [7] (ferulic acid 5 mM); 85% in [7] (ferulic acid 10 mM); 80% in [7] (ferulic acid 15 mM); 100% in [9] (vanillin 0 mM); 90% in series [9] (vanillin 5 mM). Moreover, the “Relative activity to degrade phosphoric acid swollen cellulose” value in series [9] (vanillin 10 mM) is 85%; in series [9] (vanillin 15 mM) it was 80%.

These data come from US9193963B2, “Mutant endoglucanase” (Toray Industries, Inc., priority 2011, dated 2015).
